Experimental data published in patent US20260125469A1 (Hoffmann-La Roche, published 2026).
Where two headings read alike, the source gives them in different places.

How the values were obtained:
[1] = target: human CD3 on cells (CD3ε) (human, UniProt P07766 23-207); assay: cell-based or functional assay
[2] = target: T1, Human CD3ε stalk-Fc(knob)-Avi/CD3δ stalk-Fc(hole) (human); assay: SPR, TCB captured by anti-PG antibody, antigen as analyte, 25°C
T1 construct: Heterodimer of CD3 delta and CD3 epsilon ectodomains fused to human Fc with knob-into-hole; also called human CD3ε/δ; CD3 antigen
Text: (§1) For affinity measurements, TCB molecules were captured on a C1 sensorchip (GE Healthcare) surface with immobilized anti-Fc(P329G) IgG (an antibody that specifically binds human IgG₁ Fc(P329G); “anti-PG antibody”—see WO 2017/072210, incorporated herein by reference). The experimental setup is schematically depicted in FIG. 3. Capture IgG was coupled to the sensorchip surface by direct immobilization of around 400 resonance units (RU) using the standard amine coupling kit (GE Healthcare Life Sciences).
(§2) Kinetic constants were derived using the Biacore T200 Evaluation Software (GE Healthcare Life Sciences), to fit rate equations for 1:1 Langmuir binding by numerical integration. The half-life (t_{1/2}) of the interaction was calculated using the formula t_{1/2}=ln2/koff.
(§3) To analyze the interaction to CD3, TCB molecules were captured for 240 s at 25 nM with a flow rate of 10 μl/min. Human and cynomolgus CD3F stalk-Fc(knob)-Avi/CD36-stalk-Fc(hole) were passed at a concentration of 0.14-100 nM with a flow rate of […] through the flow cells for 240 s. The dissociation was monitored for 800 s.

[3] = target: T2, Cynomolgus CD3ε stalk-Fc(knob)-Avi/CD3δ stalk-Fc(hole) (cynomolgus); assay: as above
T2 construct: also called cynomolgus CD3ε/δ
Text: as §1, §2, §3

[4] = target: T1, Human CD3ε stalk-Fc(knob)-Avi/CD3δ …; assay: SPR on immobilized human CD3ε/δ after stress, relative to sample kept at -80°C pH 6
Protocol: In order to assess the effect of the deamidation site removal and its effect on the stability of the antibodies, the optimized anti-CD3 antibodies (in TCB format) were incubated for 14 days at 37° C., pH 7.4 and at 40° C., pH 6 and further analyzed by SPR for their binding capability to human CD3ε/δ. Samples stored at −80° C. pH 6 were used as reference. The reference samples and the samples stressed at 40° C. were in 20 mM His, 140 mM NaCl, pH 6.0, and the samples stressed at 37° C. in PBS, pH 7.4, all at a concentration of 1.0 mg/ml. After the stress period (14 days) samples in PBS were dialyzed back to 20 mM His, 140 mM NaCl, pH 6.0 for further analysis.
(§4) All SPR experiments were performed on a Biacore T200 instrument (GE Healthcare) at 25° C. with HBS-P+ (10 mM HEPES, 150 mM NaCl pH 7.4, 0.05% Surfactant P20) as running and dilution buffer. Biotinylated human CD3ε/δ (see Example 3, SEQ ID NOs 41 and 42) as well as biotinylated anti-huIgG (Capture Select, Thermo Scientific, #7103262100) were immobilized on a Series S Sensor Chip SA (GE Healthcare, #29104992), resulting in surface densities of at least 1000 resonance units (RU). Anti-CD3 antibodies with a concentration of 2 μg/ml were injected for 30 s at a flow rate of 5 μl/min, and dissociation was monitored for 120 s. The surface was regenerated by injecting 10 mM glycine pH 1.5 for 60 s. Bulk refractive index differences were corrected by subtracting blank injections and by subtracting the response obtained from a blank control flow cell. For evaluation, the binding response 5 seconds after injection end was taken. To normalize the binding signal, the CD3 binding was divided by the anti-huIgG response (the signal (RU) obtained upon capture of the CD3 antibody on the immobilized anti-huIgG antibody). The relative binding activity was calculated by referencing each temperature stressed sample to the corresponding, non-stressed sample.
The experiment was performed as described in Example 4, using the TCB molecules prepared in Example 7.

[5] = target: T1, Human CD3ε stalk-Fc(knob)-Avi/CD3δ …; assay: SPR, monovalent IgG captured by anti-PG antibody, antigen as analyte, 25°C
Protocol: (§5) SPR experiments were performed as described in Example 3, with the monovalent IgG molecules prepared in Example 19.
(§6) To analyze the interaction to CD3, IgG molecules were captured for 240 s at 50 nM with a flow rate of 5 μl/min. Human and cynomolgus CD3F stalk-Fc(knob)-Avi/CD36-stalk-Fc(hole) were passed at a concentration of 0.061-250 nM with a flow rate of […] through the flow cells for 300 s. The dissociation was monitored for 800 s.

[6] = target: T2, Cynomolgus CD3ε stalk-Fc(knob)-Avi/CD3δ …; assay: as above
Protocol: as §5, §6

[7] = target: T1, Human CD3ε stalk-Fc(knob)-Avi/CD3δ …; assay: SPR on immobilized human CD3ε/δ after stress, relative to sample kept at -80°C pH 6; remark: listed apart in the source
Protocol: as §4
The experiment was performed as described in Example 4, using the monovalent IgG molecules prepared in Example 19.

human CD3 on cells (CD3ε), sequence (P07766 23-207 limits assumed): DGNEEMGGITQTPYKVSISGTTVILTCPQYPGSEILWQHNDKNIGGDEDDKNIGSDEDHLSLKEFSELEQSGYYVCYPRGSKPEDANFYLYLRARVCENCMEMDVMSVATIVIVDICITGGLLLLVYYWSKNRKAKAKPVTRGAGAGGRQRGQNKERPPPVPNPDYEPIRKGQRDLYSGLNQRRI

B1: CEACAM5-TCB, CEACAM5 CD3 variant P004.042 (bispecific antibody, human IgG1, kappa, L234A L235A)
heavy 1: not shown
heavy 2: QVQLVQSGAEVKKPGSSVKVSCKASGFNIKDTYMHWVRQAPGQGLEWMGRIDPANGNSKYVPKFQGRVTITADTSTSTAYMELSSLRSEDTAVYYCAPFGYYVSDYAMAYWGQGTLVTVSSASTKGPSVFPLAPSSKSTSGGTAALGCLVEDYFPEPVTVSWNSGALTSGVHTFPAVLQSSGLYSLSSVVTVPSSSLGTQTYICNVNHKPSNTKVDEKVEPKSCDKTHTCPPCPAPEAAGGPSVFLFPPKPKDTLMISRTPEVTCVVVDVSHEDPEVKFNWYVDGVEVHNAKTKPREEQYNSTYRVVSVLTVLHQDWLNGKEYKCKVSNKALGAPIEKTISKAKGQPREPQVCTLPPSRDELTKNQVSLSCAVKGFYPSDIAVEWESNGQPENNYKTTPPVLDSDGSFFLVSKLTVDKSRWQQGNVFSCSVMHEALHNHYTQKSLSLSP
light 1: EIVLTQSPATLSLSPGERATLSCRAGESVDIFGVGFLHWYQQKPGQAPRLLIYRASNRATGIPARFSGSGSGTDFTLTISSLEPEDFAVYYCQQTNEDPYTFGQGTKLEIKRTVAAPSVFIFPPSDRKLKSGTASVVCLLNNFYPREAKVQWKVDNALQSGNSQESVTEQDSKDSTYSLSSTLTLSKADYEKHKVYACEVTHQGLSSPVTKSFNRGEC
light 2: EVQLLESGGGLVQPGGSLRLSCAASGFQFDNYAMNWVRQAPGKGLEWVSRIRTKYNEYATYYADSVKGRFTISRDDSKNTLYLQMNSLRAEDTAVYYCVRASNFPQSYVSYFGYWGQGTLVTVSSASVAAPSVFIFPPSDEQLKSGTASVVCLLNNFYPREAKVQWKVDNALQSGNSQESVTEQDSKDSTYSLSSTLTLSKADYEKHKVYACEVTHQGLSSPVTKSFNRGEC
notes: 2+1 IgG CrossFab, inverted; human IgG1 Fc, knob-into-hole, PGLALA; also called P004.042 in CEACAM5-TCB format
With B1 the “EC50 24 h (pM), T-cell mediated lysis of CEACAM5-expressing LS180 tumor cells” value [1] was 59.1 pM, the “EC50 48 h (pM), T-cell mediated lysis of CEACAM5-expressing LS180 tumor cells” value [1] was 36.9 pM and the Kd [2] was 1.31 nM. For the same binder, the koff [2] was 0.00261 s⁻¹, the kon [2] was 2.02e+06 M⁻¹ s⁻¹ and the t1/2 [2] was 4.42 min. For the same binder, the Kd [3] was 0.641 nM, the koff [3] was 0.00162 s⁻¹ and the kon [3] was 2.54e+06 M⁻¹ s⁻¹. For the same binder, the t1/2 [3] was 7.1 min, the “binding activity [%] after 2 weeks at pH 6.0/40°C” value [4] was 100% and the “binding activity [%] after 2 weeks at pH 7.4/37°C” value [4] was 99%.

B2: anti-CD3 antibody clone P035.093 in monovalent IgG format (antibody)
heavy: not shown
chain: DKTHTCPPCPAPEAAGGPSVFLFPPKPKDTLMISRTPEVTCVVVDVSHEDPEVKFNWYVDGVEVHNAKTKPREEQYNSTYRVVSVLTVLHQDWLNGKEYKCKVSNKALGAPIEKTISKAKGQPREPQVCTLPPSRDELTKNQVSLSCAVKGFYPSDIAVEWESNGQPENNYKTTPPVLDSDGSFFLVSKLTVDKSRWQQGNVFSCSVMHEALHNHYTQKSLSLSP
light: EVQLLESGGGLVQPGGSLRLSCAASGFTFSSYAMNWVRQAPGKGLEWVSRIRSKYNNYATYYADSVKGRFTISRDDSKNTLYLQMNSLRAEDTAVYYCVRASNFPASYVSYFAYWGQGTLVTVSSASVAAPSVFIFPPSDEQLKSGTASVVCLLNNFYPREAKVQWKVDNALQSGNSQESVTEQDSKDSTYSLSSTLTLSKADYEKHKVYACEVTHQGLSSPVTKSFNRGEC
notes: also called monovalent IgG P035.093
Work on B2 yielded a Kd [5] of 0.456 nM, a koff [5] of 0.0014 s⁻¹ and a kon [5] of 3.08e+06 M⁻¹ s⁻¹. The t1/2 [5] was 8.25 min, the Kd [6] was 0.224 nM and the koff [6] was 0.000981 s⁻¹. The kon [6] was 4.38e+06 M⁻¹ s⁻¹, the t1/2 [6] was 11.8 min and the “binding activity [%] after 2 weeks at pH 6.0/40°C” value [7] was 100%. For the same binder, the “binding activity [%] after 2 weeks at pH 7.4/37°C” value [7] was 93%.

B3: CD3orig in monovalent IgG format (antibody)
heavy: not shown
chain: DKTHTCPPCPAPEAAGGPSVFLFPPKPKDTLMISRTPEVTCVVVDVSHEDPEVKFNWYVDGVEVHNAKTKPREEQYNSTYRVVSVLTVLHQDWLNGKEYKCKVSNKALGAPIEKTISKAKGQPREPQVCTLPPSRDELTKNQVSLSCAVKGFYPSDIAVEWESNGQPENNYKTTPPVLDSDGSFFLVSKLTVDKSRWQQGNVFSCSVMHEALHNHYTQKSLSLSP
light: EVQLLESGGGLVQPGGSLRLSCAASGFTFSTYAMNWVRQAPGKGLEWVSRIRSKYNNYATYYADSVKGRFTISRDDSKNTLYLQMNSLRAEDTAVYYCVRHGNFGNSYVSWFAYWGQGTLVTVSSASVAAPSVFIFPPSDEQLKSGTASVVCLLNNFYPREAKVQWKVDNALQSGNSQESVTEQDSKDSTYSLSSTLTLSKADYEKHKVYACEVTHQGLSSPVTKSFNRGEC
notes: also called monovalent IgG CD3orig
Binder B3 has a Kd [5] of 4.94 nM, a koff [5] of 0.0029 s⁻¹ and a kon [5] of 587000 M⁻¹ s⁻¹. The t1/2 [5] was 3.98 min, the “binding activity [%] after 2 weeks at pH 6.0/40°C” value [7] was 97% and the “binding activity [%] after 2 weeks at pH 7.4/37°C” value [7] was 60%.
